The target of the experiment is immunopurified Abl (UniProt P00519-2 1-1149). In words: cell-based or functional assay.

Data on one molecule can be found in publication PMC3657149, “Mig6 Is a Sensor of EGF Receptor Inactivation that Directly Activates c-Abl to Induce Apoptosis during Epithelial Homeostasis” (Developmental Cell, 2012).

Chain of immunopurified Abl (P00519 other isoform, or with tags, fused parts or gaps): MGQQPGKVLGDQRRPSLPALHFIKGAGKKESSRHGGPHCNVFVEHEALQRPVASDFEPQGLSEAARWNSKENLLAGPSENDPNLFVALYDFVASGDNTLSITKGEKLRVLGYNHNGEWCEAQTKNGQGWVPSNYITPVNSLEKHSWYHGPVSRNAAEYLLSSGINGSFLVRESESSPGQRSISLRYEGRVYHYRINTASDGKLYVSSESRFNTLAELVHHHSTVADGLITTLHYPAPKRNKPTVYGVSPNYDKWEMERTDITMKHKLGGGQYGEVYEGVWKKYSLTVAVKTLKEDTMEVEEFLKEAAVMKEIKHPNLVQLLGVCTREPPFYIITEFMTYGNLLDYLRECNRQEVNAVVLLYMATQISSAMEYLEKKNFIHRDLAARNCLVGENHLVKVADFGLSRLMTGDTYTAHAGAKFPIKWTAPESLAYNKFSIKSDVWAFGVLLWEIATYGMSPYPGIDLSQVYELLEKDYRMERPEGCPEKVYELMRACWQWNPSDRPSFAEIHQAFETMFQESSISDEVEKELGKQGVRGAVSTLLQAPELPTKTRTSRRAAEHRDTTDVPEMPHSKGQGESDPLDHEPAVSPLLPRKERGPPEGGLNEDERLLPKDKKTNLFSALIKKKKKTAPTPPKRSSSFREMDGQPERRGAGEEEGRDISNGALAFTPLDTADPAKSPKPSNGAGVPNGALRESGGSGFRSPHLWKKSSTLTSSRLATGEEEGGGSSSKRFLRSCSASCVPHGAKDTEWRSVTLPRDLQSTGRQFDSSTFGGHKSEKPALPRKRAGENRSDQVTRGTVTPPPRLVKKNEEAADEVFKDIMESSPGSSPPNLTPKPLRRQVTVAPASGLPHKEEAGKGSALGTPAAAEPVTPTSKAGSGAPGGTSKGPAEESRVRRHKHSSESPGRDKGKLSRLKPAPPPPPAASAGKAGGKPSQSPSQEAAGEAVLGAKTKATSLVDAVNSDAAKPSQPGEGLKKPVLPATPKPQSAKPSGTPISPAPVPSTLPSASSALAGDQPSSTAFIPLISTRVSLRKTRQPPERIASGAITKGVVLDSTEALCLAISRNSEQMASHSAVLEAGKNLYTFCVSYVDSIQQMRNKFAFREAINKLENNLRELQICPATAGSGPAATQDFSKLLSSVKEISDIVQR

B1: bacterially produced Mig6 (natural protein, UniProt Q9UJM3 1-462, looked up)
chain: MSIAGVAAQEIRVPLKTGFLHNGRAMGNMRKTYWSSRSEFKNNFLNIDPITMAYSLNSSAQERLIPLGHASKSAPMNGHCFAENGPSQKSSLPPLLIPPSENLGPHEEDQVVCGFKKLTVNGVCASTPPLTPIKNSPSLFPCAPLCERGSRPLPPLPISEALSLDDTDCEVEFLTSSDTDFLLEDSTLSDFKYDVPGRRSFRGCGQINYAYFDTPAVSAADLSYVSDQNGGVPDPNPPPPQTHRRLRRSHSGPAGSFNKPAIRISNCCIHRASPNSDEDKPEVPPRVPIPPRPVKPDYRRWSAEVTSSTYSDEDRPPKVPPREPLSPSNSRTPSPKSLPSYLNGVMPPTQSFAPDPKYVSSKALQRQNSEGSASKVPCILPIIENGKKVSSTHYYLLPERPPYLDKYEKFFREAEETNGGAQIQPLPADCGISSATEKPDSKTKMDLGGHVKRKHLSYVVSP
With B1, the “activation (phosphorylation) of immunopurified Abl in the presence of bacterially produced Mig6” value was determined as 2.2 fold.
